Measured values taken from CN117736314A (ADVACCINE SUZHOU BIOPHARMACEUTICAL CO LTD; UNIV FUDAN, dated 2024).

Target: SARS-CoV-2野生型(WT) S蛋白 (病毒颗粒上) (SARS-CoV-2, UniProt P0DTC2 14-1273)
Assay: cell-based or functional assay

B1: 抗体09C7 (antibody, V domains shown)
VH: QVTLRESGPTLVKPKQTLTLTCTFSGFSLSTPGGGVGWIRQPPGKALEWLALIYWDDDKRYSPSLKSSLTITKDTSKNQVVLTMTNMDPVDTATYYCARLTAADTIFDCWGQGTLVTV
VL: QSALTQPASVSGSPGLSITISCTATSSDVGAYNYVSWYQQHPGQAPKLMIYDVSKRPSGVSNRFSGSKSANTASLTISGLQAEDEADYYCSSYTTTSVVFGGGTKLTVL
IC50, pseudovirus neutralisation (luciferase, Huh-7 cells): 4 ng/mL
